Experimental data as given in PMC11838195.

Biological target: T1, MBP-METTL7A WT (human, UniProt Q9H8H3 1-244)
T1 sequence: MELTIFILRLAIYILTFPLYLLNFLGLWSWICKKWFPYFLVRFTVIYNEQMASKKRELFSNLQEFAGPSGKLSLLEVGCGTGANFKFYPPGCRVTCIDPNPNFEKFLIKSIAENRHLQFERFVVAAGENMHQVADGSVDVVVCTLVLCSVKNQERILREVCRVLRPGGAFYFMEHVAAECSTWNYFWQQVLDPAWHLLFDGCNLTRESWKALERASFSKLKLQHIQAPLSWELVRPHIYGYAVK
Assay: EMSA

B1: 60 bp dsDNA (dsDNA)
DNA 1: ATTCTTCCGAGTTTTTTCCTCATCTCACTTCCAATACAGAAAGCTTGCCCCGCCCTTCCT
DNA 2: AGGAAGGGCGGGGCAAGCTTTCTGTATTGGAAGTGAGATGAGGAAAAAACTCGGAAGAAT
B1: binds.
